What all share (assay): fluorescence polarisation
On the technique in general: Polarisation of emitted light reports the rotation of a fluorescent probe.

Experiment [1] addresses T1, wild type Rb pocket domain (Rb^P) (human, UniProt P06400 380-788).
T1 sequence: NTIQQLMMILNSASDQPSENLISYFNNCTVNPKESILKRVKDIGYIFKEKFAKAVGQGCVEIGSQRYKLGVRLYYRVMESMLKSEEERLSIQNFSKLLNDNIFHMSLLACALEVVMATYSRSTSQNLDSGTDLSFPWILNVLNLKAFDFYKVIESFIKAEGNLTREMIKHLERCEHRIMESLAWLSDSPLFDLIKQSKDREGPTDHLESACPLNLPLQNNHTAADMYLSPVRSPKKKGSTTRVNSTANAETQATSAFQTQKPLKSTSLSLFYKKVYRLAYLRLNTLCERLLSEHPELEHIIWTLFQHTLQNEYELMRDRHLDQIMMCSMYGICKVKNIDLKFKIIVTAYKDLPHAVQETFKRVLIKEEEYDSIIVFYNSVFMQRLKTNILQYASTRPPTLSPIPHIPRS

For another experiment, the target named is T2, Rb^P M704V (human, UniProt P06400 380-788, M704V).
T2 sequence: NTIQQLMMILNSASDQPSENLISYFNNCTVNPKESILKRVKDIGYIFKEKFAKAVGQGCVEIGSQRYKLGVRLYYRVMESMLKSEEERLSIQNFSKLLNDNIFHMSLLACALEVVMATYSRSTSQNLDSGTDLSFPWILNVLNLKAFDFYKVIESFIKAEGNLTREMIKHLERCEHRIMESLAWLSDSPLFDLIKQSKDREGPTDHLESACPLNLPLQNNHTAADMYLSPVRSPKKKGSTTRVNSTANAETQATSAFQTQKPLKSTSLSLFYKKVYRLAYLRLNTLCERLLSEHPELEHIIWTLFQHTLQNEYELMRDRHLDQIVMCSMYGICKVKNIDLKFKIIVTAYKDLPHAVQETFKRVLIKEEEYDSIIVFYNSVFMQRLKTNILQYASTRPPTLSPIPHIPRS

Another experiment addresses T3, Rb^P S751Y (human, UniProt P06400 380-788, S751Y).
T3 sequence: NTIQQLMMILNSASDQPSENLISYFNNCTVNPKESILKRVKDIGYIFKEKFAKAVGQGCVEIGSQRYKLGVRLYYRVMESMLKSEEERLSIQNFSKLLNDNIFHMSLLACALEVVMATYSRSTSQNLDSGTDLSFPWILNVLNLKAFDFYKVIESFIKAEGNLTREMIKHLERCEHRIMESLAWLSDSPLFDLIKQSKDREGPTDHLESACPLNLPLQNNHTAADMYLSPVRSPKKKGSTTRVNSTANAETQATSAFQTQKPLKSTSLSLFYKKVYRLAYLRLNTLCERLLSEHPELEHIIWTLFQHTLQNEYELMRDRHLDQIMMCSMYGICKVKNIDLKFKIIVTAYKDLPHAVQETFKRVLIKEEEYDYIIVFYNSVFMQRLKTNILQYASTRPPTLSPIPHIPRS

The target of experiment [2] is T1, wild type Rb pocket domain (Rb^P). This is another data set of the same source.
A further experiment concerns the target T4, Rb^P E554K (human, UniProt P06400 380-788, E554K).
T4 sequence: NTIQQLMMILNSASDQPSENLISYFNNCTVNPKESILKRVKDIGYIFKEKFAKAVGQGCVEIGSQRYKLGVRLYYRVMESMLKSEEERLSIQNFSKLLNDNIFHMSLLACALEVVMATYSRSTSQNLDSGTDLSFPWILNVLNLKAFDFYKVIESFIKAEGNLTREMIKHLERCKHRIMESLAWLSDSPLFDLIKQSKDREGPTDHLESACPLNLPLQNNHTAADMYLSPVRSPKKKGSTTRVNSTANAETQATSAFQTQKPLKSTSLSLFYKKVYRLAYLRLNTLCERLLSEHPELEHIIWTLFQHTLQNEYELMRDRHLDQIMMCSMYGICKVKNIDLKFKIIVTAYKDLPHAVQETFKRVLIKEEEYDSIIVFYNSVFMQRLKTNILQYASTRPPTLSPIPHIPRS

For the next experiment, the target named is T5, Rb^P I703F (human, UniProt P06400 380-788, I703F).
T5 sequence: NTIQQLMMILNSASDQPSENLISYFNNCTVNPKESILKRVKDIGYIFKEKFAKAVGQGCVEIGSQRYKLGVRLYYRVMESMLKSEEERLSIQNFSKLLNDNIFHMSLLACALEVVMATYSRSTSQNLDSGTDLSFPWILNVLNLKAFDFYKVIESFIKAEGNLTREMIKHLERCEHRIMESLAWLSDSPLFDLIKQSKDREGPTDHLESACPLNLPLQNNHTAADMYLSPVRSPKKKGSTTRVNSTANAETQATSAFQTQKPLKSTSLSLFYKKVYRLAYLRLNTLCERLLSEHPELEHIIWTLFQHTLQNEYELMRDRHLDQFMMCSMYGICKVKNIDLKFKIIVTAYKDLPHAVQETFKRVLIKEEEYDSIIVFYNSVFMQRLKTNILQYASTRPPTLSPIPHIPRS

The target of experiment [3] is T1, wild type Rb pocket domain (Rb^P). This is another data set of the same source.

Read-outs that look alike come from different tables or passages of the source. Where no end group is shown, it is not given here. TMR = tetramethyl rhodamine dye

In general, Kd refers to the free concentration of one partner at which half of the binding sites on the other are occupied at equilibrium, for simple one-to-one binding. High values mean weaker binding, low ones tighter binding.

Take {TMR}-GEGIRDLFDCDFGDLTPLD [TMR-E2F1^TD (peptide of the E2F1 transactivation domain, N-labeled with tetramethyl rhodamine)]: the Kd in experiment [1] is 22 nM; with Rb^P M704V, 46 nM; in the experiment with Rb^P S751Y, 28 nM; in experiment [2], 17 nM; with Rb^P E554K, 1740 nM; with Rb^P I703F it was 94 nM. Moreover, the affinity in experiment [3], expressed as Kd, was 14 nM.
